Experimental data published in the RNAGym collection of RNA variant scans (doi:10.1073/pnas.2313332121).
This sample holds only a part of the variants without activity.

B1: TPR 5TU (parent)
chain: GGAUCUUCUCGAUCUAACAAAAAAGACAAAUCUGCCACAAAGCUUGAGAGCAUCUUCGGAUGCAGAGGCGGCAGCCUUCGGUGGCGCGAUAGCGCCAACGUUCUCAACUAUGACACGCAAAACGCGUGCUCCGUUGAAUGGAGUUUAUCAUG

Variants of: B1
Assay: polymerase ribozyme fitness, log enrichment relative to wild type (log ratio); higher = more active; in vitro selection for triplet polymerase activity
Procedure, shortened: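 Input and output libraries were sequenced on Illumina after a single in vitro selection round, run in triplicate on PCR-built, transcribed mutant libraries of each subunit of a heterodimeric triplet polymerase ribozyme. Selection annealed libraries to a biotinylated primer, the partner subunit and triplets, incubated them frozen at −7 °C, then gel-excised extended constructs for streptavidin-bead capture and RT-PCR. Genotypes with ≥10 input reads and ≥1 read per output were kept. Fitness is the logarithm, taken in base 2, of genotype enrichment divided by wild-type enrichment, using inverse-variance-weighted replicate averages.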

| Variant | polymerase ribozyme fitness (log ratio) |
| --- | --- |
| C96U A107C | -3.14 |
| G94A C96G | -2.1 |
| C96G A98U C103G A113C G143A | ≤ -4.2 |
| C96U U145A A150U | 0.912 |
| C95A C96A U104C A142C | -4.07 |
| U101G A115U G117U A150C | ≤ -4.2 |
| A98G G124C | -0.819 |
| C95A G141C | 0.744 |
| A97G U102A C129A | -3.98 |
| G94C A97U A150G | -1.52 |
| C96G U102G | -3.26 |
| C99G C118U U148A | ≤ -4.2 |
| C96U G126U A137C A138G | ≤ -4.2 |
| C96G A122G U139G | 0.0535 |
| C96A U101C U109A C118A | -1.54 |
| C95G A97C | -0.47 |
| G94A U151A | ≤ -4.2 |
| C96U C103U | -1.25 |
| C96G U144C | -0.123 |
| C99U A119C C125G U134G | -3.27 |
| C99G C114U | -2.38 |
| C96U A137U | -3.84 |
| A98G U104G C118U | -0.702 |
| A98G C132G G136C | -4.12 |

| Variant | polymerase ribozyme fitness (log ratio) |
| --- | --- |
| A97U C99G | -1.6 |
| C96G G112C | -3.95 |
| G94C C131U | -1.79 |
| C96A C103G | -2.53 |
| G94A A119U | -2.21 |
| A97U U151G | ≤ -4.2 |
| A98U A115U A121G U127G | -3.32 |
| U102A G128U | -4.1 |
| U101G G117A G133U | -4.1 |
| C96G G100U | -3.95 |
| C96U C123A | -0.106 |
| C96U C123U | -0.655 |
| G94C A142C | -1.37 |
| C96A C125U U130C | -0.299 |
| A98G A115G U135G | -3.81 |
| A97G U130G | -2.77 |
| A97U C116U | -0.695 |
| C95A C108G | ≤ -4.2 |
| C96G C125G U130G C132A | ≤ -4.2 |
| C96A C105U | 0.343 |
| C96A C105G | -1.4 |
| C95U C96G U135G U144G A147C | -4.2 |
| C95U A142U U145G | -2.47 |
| C99G G117C A122G | -1.51 |

| Variant | polymerase ribozyme fitness (log ratio) |
| --- | --- |
| C96U C149U | -0.874 |
| C96G C108U | -2.5 |
| C96G U109G G124C | -2.62 |
| G94C U145G | -0.944 |
| C99A C118G A119C | -0.582 |
| C99G A121C U151A | ≤ -4.2 |
| A98U A137C | -4.19 |
| C96G C131A | -2.35 |
| C96A U151C | -3.24 |
| G94C C116U | -0.0318 |
| C96A G143C | -2.38 |
| C96U A97U U134G A138C | ≤ -4.2 |
| A97U U109G | -1.62 |
| G94A A137C | -3.2 |
| C95U C114U | -1.72 |
| C96A G112C | -3.31 |
| G94U U101G A120U A142U | -2.08 |
| C96U U104G C129G | -2.81 |
| C99G G126A | -0.619 |
| C99G G126U | -0.93 |
| G94U U104C G117U U134A | -2.96 |
| C95U C96A C99U C108U | -4.11 |
| C95U U145A | 0.0594 |
| C96U A97C | 0.0607 |

| Variant | polymerase ribozyme fitness (log ratio) |
| --- | --- |
| G94U A150G | -2.5 |
| G94U A150U | -0.849 |
| G94A C96U C99G U144G | ≤ -4.2 |
| A98U G141U | 1.39 |
| G94A C116G | 0.466 |
| A97U U139C G140C U145G | -3.85 |
| G94A C116U A122U G136A | -0.164 |
| C96U U151G | -4.05 |
| C95G C96U | -2.05 |
| C95G C96G | -2.17 |
| U101G A113U | -1.25 |
| C96G G152U | -2.77 |
| G94U G128U U139A G141A | ≤ -4.2 |
| C99A C116U | -0.602 |
| C96G C105G G143A | -3.02 |
| A97G G152A | -3.19 |
| C95U U101G C105U C125U A142U | ≤ -4.2 |
| A98U C129U | 0.463 |
| G100U U101G | -3.34 |
| G94U G143U | -3.64 |
| C99U U102A | -1.33 |
| C95A A98G | 0.372 |
| A97G C123G C131G | -2.72 |
| G94C U104G | -1.24 |

| Variant | polymerase ribozyme fitness (log ratio) |
| --- | --- |
| U101G C118A G126A | -3.59 |
| C96G A150U | 0.451 |
| C96A G128U | -2.45 |
| C95U U102C | -1.06 |
| C95U U102G | -1.19 |
| C96U G126A | 0.845 |
| G94A G133C | -2.71 |
| G94A G133U | -3.19 |
| G100A G126A | -4.02 |
| C96A C132G | -3.72 |
| C99G C149U | -1.74 |
| C96U A138U | ≤ -4.2 |
| C95U C99G U104G A110G C116A A142U | ≤ -4.2 |
| C96A A115U A147C | -3.48 |
| C96G G141C | -0.919 |
| C96U U101C A142C | -1.82 |
| A98U U101G C129U U139C | ≤ -4.2 |
| G100U C131U | ≤ -4.2 |
| C99U C103A G128A G136U U148G | ≤ -4.2 |
| C95U A98G | -1.9 |
| C95U A98C | -1 |
| C96A U127A | -3.79 |
| C96U U148A | -3.33 |
| C96U U148G | -3.13 |

| Variant | polymerase ribozyme fitness (log ratio) |
| --- | --- |
| G94U C129G A147U | ≤ -4.2 |
| C95A A120G A138G | -2.96 |
| G94C A97G C116A | -0.587 |
| C95U U111G | ≤ -4.2 |
| A97U G140U | -3.87 |
| C99U A147G | -2 |
| C96A G136A | -0.205 |
| C96U C105G | -2.46 |
| C96U C105U | 0.67 |
| C96U C105A | -0.493 |
| A98G A121G | -1.63 |
| G94A C114U | -1.93 |
| A98U A138G | -3.32 |
| C96U G100U | -3.13 |
| C96A U130C | 0.457 |
| G94A C108A A137C | ≤ -4.2 |
| C96A C125A | -0.718 |
| G94A C105A | -1.65 |
| C93U U144G | -0.253 |
| C96U A113G G136C | -3.93 |
| C95A C96A C116U | -0.649 |
| G94C G126A C132A | -2.93 |
| A97C A98U U111G | -3.78 |
| C96A A137U | -3.87 |

| Variant | polymerase ribozyme fitness (log ratio) |
| --- | --- |
| G100U U144G | -3.5 |
| C96G C99G C116A A147C | ≤ -4.2 |
| C96U A110U | -3.6 |
| C99G A115G C125G G136C | -3.89 |
| G94C C105A | -1.22 |
| C96U C116U G140C U144G | -4.04 |
| C96U G143C U146C | -1.75 |
| A97G G143A | -1.44 |
| C96A G117U A138U | ≤ -4.2 |
| C95U C123A C125U | -0.165 |
| C96G A97U | -1.83 |
| C96G A97G | -2.61 |
| C96A G124U | -0.674 |
| C96A G124A | -0.328 |
| C96U G117U A120U C149A | ≤ -4.2 |
| G94A G152C | -3.08 |
| C96A A98U | -0.335 |
| C96A A120U G140U | -3.09 |
| U101G G136A | 0.652 |
| U101G G136C | -2.44 |
| G94A G141U | 0.898 |
| G94A G141C | -2.23 |
| G94A G141A | 0.172 |
